Test results as given in patent publication US20260193317A1, “COMBINATION THERAPY WITH ACTRIIB RECEPTOR VARIANTS AND GLP-1 AGONISTS” (35PHARMA Inc., priority 2023, published 2026).
Where two headings read alike, the source gives them in different places.

How the values were obtained:
[1] = system: diet-induced obese (DIO) mice; assay: Body composition and metabolism in diet-induced obese (DIO) mice; format: in vivo
Procedure: (§1) Experiments were performed to assess the effects of P1229 on body composition and metabolism in diet-induced obese (DIO) mice. DIO mice were purchased from Jackson Laboratories (#380050). Briefly, mice were fed a high-fat diet (HFD, 60% kcal from fat) from 6 weeks of age until 22 weeks of age (total of 16 weeks on the HFD). […] After 3 weeks of treatments, some animals were sacrificed and scanned by EchoMRI […] (FIGS. 11A-F), while others were sacrificed for tissue collection and RNA analysis. Animals were maintained on the HFD throughout the acclimatization and treatment periods. The murine version of bimagrumab used for these experiments comprises the heavy chain amino acid sequence of SEQ ID NO: 376 and the light chain sequence of SEQ ID NO: 377.

[2] = mouse, in vivo, sc
Procedure: Evaluation of pharmacokinetic profiles.
To determine the concentration of P1229 in mouse serum samples, a 96-well plate was coated 1 h at RT with a solution of anti-ectodomain antibody (1 μg/mL in carbonate buffer, 100 μL/well). The plate was then washed three times with buffer (Biolegend #421601). Blocking buffer (1% BSA, 0.05% tween-20 in TBS, 300 μL/well) was added to each well and the plate was incubated for 1 hour at RT with shaking at 300 rpm. The plate was washed three times and Standards, QCs and sample were diluted in assay diluent (1% BSA, 0.05% tween-20 in TBS, 100 μL/well) and loaded in duplicate on the plate for 1 h30 at RT with shaking at 300 rpm. The plate was washed three times and a solution of anti-human Fc antibody conjugated to HRP (Southern Biotech #2049-05, diluted 1 in 20,000 in assay diluent, 100 μL/well) was added to each well and incubated for 1 h at RT with shaking at 300 rpm.

[3] = system: follicle-stimulating hormone (FSH); assay: FSH production in DIO mice; format: in vivo; details: 3 weeks of treatment
Procedure: as §1
Follicle-stimulating hormone (FSH) is a known biomarker of in vivo target engagement for activin receptor-based traps (See Attie et al. (2013). Muscle Nerve, 47: 416-423). To further validate in vivo target engagement for exemplary agents, FSH production was evaluated in DIO mice, as described above.

[4] = Skeletal muscle mass and Mss51 expression in lean mice; format: in vivo
Procedure: The effects of P1229 on body composition and metabolism in lean mice were further assessed.
Additional assays were performed to assess the relative expression level of Mss51, a skeletal muscle-specific gene. Mss51 is a key target of myostatin signaling, with a role in fatty acid oxidation, glycolysis, and oxidative phosphorylation.

DIO mice = assay: Body composition in high fat diet mice, alone and in combination with incretin mimetics; format: in vivo
Procedure: Experiments were performed in vivo to investigate the potential for additive or synergistic effects between exemplary ActRIIB-ECD polypeptide constructs and incretin mimetics.

[5] = Single subcutaneous injection in CD-1 mice: body weight; format: in vivo; details: CD-1 male mice, single s.c. injection; P1229 50 mg/kg, semaglutide 2 mg/kg
activin A [6] = target: T1, activin A (Homo sapiens, UniProt P08476); assay: Potency testing by ELISA: activin A binding; details: for ELISA potency Activin A, potency fold-change: relative to reference (P1372 = 1)
T1 sequence (P08476 311-426): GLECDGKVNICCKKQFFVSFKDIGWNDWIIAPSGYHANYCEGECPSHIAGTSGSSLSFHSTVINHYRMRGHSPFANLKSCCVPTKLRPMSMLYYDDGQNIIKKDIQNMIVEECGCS
Excerpt: Potency testing by ELISA. […] The next day, the plate was washed three times with buffer (Biolegend #421601).

[7] = Co-formulation study of ectodomain-based traps with incretin mimetics (monomer content by SEC / RP-HPLC, integrity, stability); format: physicochemical
Procedure: In each case, the following parameters were assessed: a) monomer content (size exclusion chromatography), b) activin A and GDF-8 neutralization (cell-based assays [CBAs]), c) activin A binding (ELISA), d) GLP-1 receptor binding (ELISA).
In each case, the following parameters were assessed: a) monomer content (size exclusion chromatography), b) activin A and GDF-8 neutralization (cell-based assays [CBAs]), and c) GLP-1 receptor activation (CBA).
Given that protein aggregation can be indicative of reduced conformational stability and decreased activity, Size-Exclusion Chromatography-High Performance Liquid Chromatography (SEC-HPLC) was used to determine the purity of each ActRIIB-ECD construct. This method measured the percentage of intact monomeric species as well as the presence of aggregates and/or degradation products.
In some instances, the method used to assess the purity of an agent was based on a reversed-phase high-performance liquid chromatography (RP-HPLC) setup with a C18 column. The mobile phases consisted of acetonitrile with 0.1% formic acid (organic phase) and water with 0.1% formic acid (aqueous phase). […] Formic acid anions form an ion pair with positively charged peptides, increasing their hydrophobicity and therefore their retention time. Detection was performed using a UV detector, at 280 nm.

activin A [8] = target: T1, activin A; assay: TGFβ-reporter HEK293 cell-based assay: activin A neutralization; details: for IC50: read-out: CBA Potency Activin A; for CBA potency Activin A, potency fold-change: relative to reference (P1372 = 1)
Procedure: Potency testing by neutralization on cell-based assays. Characterization of the activin A, activin B, GDF-8, and GDF-11 inhibition potency (IC50) of the fusion proteins was performed using a cell-based reporter assay. TGFβ-reporter HEK293 cells were obtained from InvivoGen (San Diego, CA, cat. no. hkb-tgfb) and were maintained following the manufacturer's instructions. Briefly, cells were grown in high-glucose DMEM, containing 10% heat-inactivated FBS, 30 μg/mL blasticidin, 250 μg/mL hygromycin B, and 100 μg/mL zeocin (hereafter, “growth medium”). Once the cells reached 70-80% confluence, they were detached in growth medium by gently tapping on the flask. For all assays, cells were seeded in 96-well plates at a density of 20,000 cells per well in growth medium. Cells were left to attach for 10 minutes at room temperature (RT) prior to being transferred to a 37° C. incubator (5% CO2) overnight. The next day, treatments were prepared by combining the appropriate concentration of agent with activin A, activin B, GDF-8, or GDF-11 for 30 min at RT (shaking at 150 rpm). Treatments were conducted in high-glucose DMEM (serum-free and with no selection agents), and the final concentration of cytokine (ligand) was 0.3 nM. Growth medium was removed from the culture plates, and cells were treated with the appropriate mixes of fusion protein and cytokine. Treatment duration was for 18-22 h at 37° C. (5% CO2). All treatments were performed in technical duplicates and at least one or two independent experiments were conducted for each cytokine. At the end of the treatment period, supernatants were transferred to a new plate, and centrifuged at 300 RPM for 3 min. Forty microlitres of supernatant from each condition was transferred to a new plate, into which 180 μL of Quanti-Blue reagent (InvivoGen, cat. no. rep-qbs) was added. Quanti-Blue reagent was prepared following the manufacturer's instructions. Samples were incubated for 45 min at 37° C. At the end of the incubation, absorbance was read at 650 nm. The data were plotted in GraphPad Prism, which was used to calculate IC50 values as a non-linear regression.

[9] = DIO mice, 21 days, P1229 10 mg/kg twice weekly
[10] = DIO mice, 21 days, P1229 40 mg/kg twice weekly + calorie restriction
[11] = D 7 after storage at room temperature
[12] = D 28, storage at room temperature

## P1229: hActRIIB L33W, 14 aa linker, IgG1-DL Fc; SEQ ID 211
[1]
  hepatic Ahsg expression: reduced Ahsg expression
  hepatic Fgf21 expression: reduced
[1]; 3 weeks
  Mss51 gene expression in gastrocnemius muscle: reduced Mss51 gene expression
  ratio of lean mass to fat mass: higher
[1]; 3 weeks s.c., P75, P1229 25 mg/kg twice weekly, P1373 5, 20, 50 mg/kg twice weekly, P1307 20 mg/kg weekly
  fat mass and lean mass (EchoMRI): fat loss with concomitant lean mass gain
[2]
  PK profile alone versus in the co-formulation: comparable PK profile
[3]
  FSH production: significant decreases in FSH production
[4]; 25 mg/kg twice weekly, seven days
  tibialis anterior and gastrocnemius weight: significantly increased
[4]; 5 or 25 mg/kg twice weekly, one week
  Mss51 expression in the tibialis muscle relative to vehicle: dose-dependent decrease in Mss51 expression
DIO mice; DIO mice, 21 days s.c., P1307 20 mg/kg weekly, P1229 40 mg/kg twice weekly, semaglutide 40 μg/kg daily, tirzepatide 45 μg/kg daily, alone or combined
  Body weight (% change from baseline): +11.1%
DIO mice; [9]
  Body weight (% change from baseline): +7.7%
  Fat mass (% change from baseline): −1.6%
  Lean mass (% change from baseline): +10.6%
  Lean mass/fat mass ratio: 1.4
DIO mice; [10]
  Body weight (% change from baseline): −12.8%
  Fat mass (% change from baseline): −33.7%
  Lean mass (% change from baseline): +3.5%
  Lean mass/fat mass ratio: 1.9
DIO mice; DIO mice, D21
  visceral, epididymal, pericardial, peri-renal, and retroperitoneal white adipose tissue weights: not significantly affected
DIO mice; DIO mice, D21, P1229 with caloric restriction
  white adipose tissue weights: significantly decreased visceral, pericardial, and peri-renal (but not epididymal and retroperitoneal) white adipose tissue weights
DIO mice; DIO mice, D21, P1229 with or without caloric restriction
  gastrocnemius and tibialis anterior weights: significantly increased
DIO mice; as E44, NMR
  Fat mass (% change from baseline): +2.7%
  Lean mass (% change from baseline): +15.1%
  Lean mass/fat mass ratio: 1.3
[5]
  body weight: increased body weight

B1: P1372: hActRIIB L33W, 14 aa linker, IgG1 YTE-DL Fc; SEQ ID 231 (protein)
chain: ETRECIYYNANWELERTNQSGLERCEGEQDKRWHCYASWRNSSGTIELVKKGCWLDDFNCYDRQECVATEENPQVYFCCCEGNFCNERFTHLPEAGGPEVTYEPPPTGGGGSGGGGSGGGGTHTCPPCPAPELLGGPSVFLFPPKPKDTLYITREPEVTCVVVDVSHEDPEVKFNWYVDGVEVHNAKTKPREEQYNSTYRVVSVLTVLHQDWLNGKEYKCKVSNKALPAPIEKTISKAKGQPREPQVYTLPPSRDELTKNQVSLTCLVKGFYPSDIAVEWESNGQPENNYKTTPPVLDSDGSFFLYSKLTVDKSRWQQGNVFSCSVMHEALHNHYTQKSLSLSPG
Activin A [6]; D 0
  ELISA potency Activin A, fold-change vs reference: 1 (ref)
Activin A [6]; D 7 after storage at 2-8° C.
  ELISA potency Activin A, fold-change vs reference: 1 (ref)
Activin A [6]; [11]
  ELISA potency Activin A, fold-change vs reference: 1 (ref)
Activin A [6]; D 28, storage at 2-8° C.
  ELISA potency Activin A, potency fold-change: 1 (ref) fold
Activin A [6]; [12]
  ELISA potency Activin A, potency fold-change: 1 (ref) fold
[7]; D 0, P1372 40 mg/mL, semaglutide […], pH 7.5
  Monomer content P1372: 99.3%
[7]; D 0, P1372 40 mg/mL, tirzepatide 10 mg/mL, 10 mM NaPO4, 100 mM Glycine, 75 mM sucrose (pH 7.5)
  Monomer Content (%) P1372: 98.9%
[7]; D 7, 2-8° C.
  Monomer Content (%) P1372: 98.9%
[7]; D 7, RT
  Monomer Content (%) P1372: 98.8%
[7]; D 7 after storage at 2-8° C.
  Monomer content P1372: 99.3%
[7]; [11]
  Monomer content P1372: 99.2%
[7]; D 14, 2-8° C.
  Monomer Content (%) P1372: 98.8%
[7]; D 14, RT
  Monomer Content (%) P1372: 97.9%
[7]; D 28, 2-8° C.
  Monomer Content (%) P1372: 98.9%
[7]; D 28, RT
  Monomer Content (%) P1372: 98.6%
[7]; D 28, storage at 2-8° C., 10 mM NaPO4, 100 mM glycine, 75 mM sucrose pH 7.5
  Monomer content P1372: 99.2%
[7]; D 28, storage at room temperature, 10 mM NaPO4, 100 mM glycine, 75 mM sucrose pH 7.5
  Monomer content P1372: 98.8%
[7]; D 56, 2-8° C.
  Monomer Content (%) P1372: 98.8%
[7]; D 56, RT
  Monomer Content (%) P1372: 98.4%
Activin A [8]; D 0
  CBA potency Activin A, fold-change vs reference: 1 (ref)
  IC50: 0.59 nM
Activin A [8]; D 7, 2-8° C.
  IC50: 0.81 nM
Activin A [8]; D 7, RT
  IC50: 0.78 nM
Activin A [8]; D 7 after storage at 2-8° C.
  CBA potency Activin A, fold-change vs reference: 1 (ref)
Activin A [8]; [11]
  CBA potency Activin A, fold-change vs reference: 1 (ref)
Activin A [8]; D 14, 2-8° C.
  IC50: 0.63 nM
Activin A [8]; D 14, RT
  IC50: 0.74 nM
Activin A [8]; D 28, 2-8° C.
  IC50: 0.99 nM
Activin A [8]; D 28, RT
  IC50: 0.9 nM
Activin A [8]; D 28, storage at 2-8° C.
  CBA potency Activin A, potency fold-change: 1 (ref) fold
Activin A [8]; [12]
  CBA potency Activin A, potency fold-change: 1 (ref) fold
Activin A [8]; D 56, RT
  IC50: 1.1 nM
